In paper PMC7733260, “Long non-coding RNA NEAT1 promotes bone metastasis of prostate cancer through N6-methyladenosine”:

T1: CYCLINL1 (cyclin L1) (UniProt Q9UK58 1-526)
T1 sequence: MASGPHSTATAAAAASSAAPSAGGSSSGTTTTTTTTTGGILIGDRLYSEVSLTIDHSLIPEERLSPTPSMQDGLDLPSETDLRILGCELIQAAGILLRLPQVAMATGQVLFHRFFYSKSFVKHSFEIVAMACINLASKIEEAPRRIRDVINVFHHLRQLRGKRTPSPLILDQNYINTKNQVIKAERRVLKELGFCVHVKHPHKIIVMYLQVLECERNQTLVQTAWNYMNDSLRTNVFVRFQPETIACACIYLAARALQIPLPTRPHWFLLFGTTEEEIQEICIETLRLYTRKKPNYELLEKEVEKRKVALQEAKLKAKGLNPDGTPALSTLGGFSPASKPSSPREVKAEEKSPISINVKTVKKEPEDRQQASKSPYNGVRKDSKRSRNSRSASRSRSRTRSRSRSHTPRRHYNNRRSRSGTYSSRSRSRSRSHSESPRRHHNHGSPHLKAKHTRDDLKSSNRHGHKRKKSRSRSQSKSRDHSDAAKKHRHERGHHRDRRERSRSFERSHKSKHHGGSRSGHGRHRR


Experiments:
CDK19 = CDK19 (UniProt Q9BWU1 1-502); assay: EMSA; 10 mM Mg2+, tRNA, RNase T1; EMSA: 10 mM Tris-Cl pH 7.5, 25 mM KCl, 10 mM MgCl2, 1 mM DTT, 100 ng/ml tRNA, 25 C 30 min, then RNase T1 37 C 15 min. Pull-down: lysate in 50 mM Tris-HCl pH 7.5, 150 mM NaCl, 1% NP-40, 0.1% SDS, 4 C 12 h; wash 50 mM Tris pH 7.4, 150 mM NaCl, 0.05% NP-40, 1 mM MgCl2; details: protein: ivt; tags: Flag; label: 3' biotin
Chain of CDK19 (Q9BWU1 whole entry): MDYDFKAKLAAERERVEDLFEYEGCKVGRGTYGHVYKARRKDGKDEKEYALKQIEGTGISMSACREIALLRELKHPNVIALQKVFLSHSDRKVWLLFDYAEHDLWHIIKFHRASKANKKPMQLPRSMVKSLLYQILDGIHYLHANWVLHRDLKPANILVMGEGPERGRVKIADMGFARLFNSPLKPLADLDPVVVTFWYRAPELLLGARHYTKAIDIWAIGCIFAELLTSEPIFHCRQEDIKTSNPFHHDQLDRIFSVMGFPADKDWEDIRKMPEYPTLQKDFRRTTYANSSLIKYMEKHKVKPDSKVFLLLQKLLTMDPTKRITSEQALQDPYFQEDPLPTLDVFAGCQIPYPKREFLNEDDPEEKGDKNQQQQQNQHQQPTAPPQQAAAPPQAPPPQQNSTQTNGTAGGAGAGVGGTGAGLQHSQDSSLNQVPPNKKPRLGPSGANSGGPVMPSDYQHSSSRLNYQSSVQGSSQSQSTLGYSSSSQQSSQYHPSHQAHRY

CYCLINL1 (cyclin L1) = molecular target: T1, CYCLINL1 (cyclin L1); assay: as above; details: protein: ivt; tags: Myc; label: 3' biotin

Binder | binding result (CDK19) | binding result (CYCLINL1 (cyclin L1))
GCAGCCCCUUUUUUUCCAGACCAAGGGCUGUGA (ssRNA) [Probe WT in Fig3e (NEAT1-1 U-rich)] | binds | –
Probe m6A in Fig3e (NEAT1-1 site #4) (ssRNA, m6A at site #4 (A3494); stoichiometry and installation not stated) RNA: UUAUUUUUAUCGUUGGGAUCUUUCUGUCUUCUGGGUUCCAUUUUUUAAAUGUUUAAAAAUAUGUUGACAUGGUAGUUCAGUUCUUAACCAAUGACUUGGGGAUGA | – | binds
